{
  "source": "paper PMC10302803",
  "origin": "cited, not measured here",
  "biological_target": "VEGF-P3CYC",
  "sequence (main, as listed by the source)": "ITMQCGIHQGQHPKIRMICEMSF",
  "note": "pKd: −log10 of the molar value.",
  "data": [
    {"substance": "VEGFR2 (from UniProt P35968)", "values": [
      {"measurement": "pKd", "result": 7.96}
    ]}
  ]
}
